Where a chain is given by its changes, count along the chain named.
Columns and labels:
[1] = target: human IL6 (Homo sapiens, UniProt P05231); assay: Phage ELISA, binding to human IL6 in the presence or absence of adenosine and/or ATP; details: with or without 10 mM adenosine and ATP
Description: (§1) Phage-containing culture supernatants were collected according to a conventional method (Methods Mol. Biol. (2002) 178, 133-145) from single colonies of E. coli obtained by the method described above. The collected culture supernatants were treated by ultrafiltration using NucleoFast 96 (MACHERY-NAGEL). 100 μl of the culture supernatants were added to each well of NucleoFast 96, and it was centrifuged (4500 g for 45 minutes) to remove flow through. After addition of 100 μl of H2O, the NucleoFast 96 was washed by centrifugation (4500 g for 30 minutes). Finally, 100 μl of TBS was added, and the NucleoFast 96 was allowed to stand for five minutes at room temperature. A phage suspension was collected from the supernatant in each well of the NucleoFast 96.
(§2) The purified phages, to which TBS or (adenosine+ATP)/TBS was added, were subjected to ELISA by the following procedure. A StreptaWell 96 microtiter plate (Roche) was coated overnight with 100 μl of TBS containing biotin-labeled antigen. […] Then, the developed color was assessed by measuring absorbance at 450 nm. […]
(§3) First, a StreptaWell 96 microtiter plate (Roche) was coated at room temperature for one hour or more with 100 μl of TBS containing a biotin-labeled antigen. […] Then, the developed color was assessed by measuring absorbance at 450 nm (FIGS. 25, 26, and 27). […]

[2] = target: HSA (human serum albumin) (Homo sapiens, UniProt P02768); assay: Phage ELISA, binding to HSA in the presence or absence of adenosine and/or ATP; details: with or without 10 mM adenosine and ATP
Description: as §1, §2, §3

[3] = target: human IgA-Fc (Homo sapiens, UniProt P01876); assay: Phage ELISA, binding to human IgA-Fc in the presence or absence of adenosine and ATP (monovalent / multivalent display)
Description: Culture supernatants containing phages were collected according to a conventional method (Methods Mol. Biol. (2002) 178, 133-145) from single colonies of E. coli obtained by the method described above. The collected culture supernatants were ultrafiltrated using NucleoFast 96 (MACHERY-NAGEL). 100 μl of the culture supernatants were added to each well of NucleoFast 96 and centrifuged (4500 g for 45 minutes) to remove flow-through. After 100 μl of H2O was added, the NucleoFast 96 was washed by centrifugation (4500 g for 30 minutes). Finally, 100 μl of TBS was added, and the NucleoFast 96 was allowed to stand for five minutes at room temperature. A phage solution contained in the supernatant in each well was collected.
Purified phages, to which TBS or (adenosine+ATP)/TBS was added, were subjected to ELISA by the following procedure. A StreptaWell 96 microtiter plate (Roche) was coated overnight with 100 μl of TBS containing a biotin-labeled antigen. After the antigen was removed from each well of the plate by washing with TBST, the wells were blocked with 250 μl of 2% skim milk/TBS for one hour or more. 2% skim milk/TBS was removed, and then the prepared, purified phages were added to each well. […] Then, the developed color was assessed by measuring absorbance at 450 nm.

Chain of human IgA-Fc (P01876 with tags, fused parts or gaps isoform P01876-1): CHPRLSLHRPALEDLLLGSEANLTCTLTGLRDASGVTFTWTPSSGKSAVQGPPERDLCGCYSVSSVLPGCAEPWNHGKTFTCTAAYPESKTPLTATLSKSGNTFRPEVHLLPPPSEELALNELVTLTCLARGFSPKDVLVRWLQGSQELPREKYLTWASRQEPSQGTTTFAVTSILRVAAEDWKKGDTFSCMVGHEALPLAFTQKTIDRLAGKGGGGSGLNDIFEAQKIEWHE
Chain of human IL6 (P05231 30-212): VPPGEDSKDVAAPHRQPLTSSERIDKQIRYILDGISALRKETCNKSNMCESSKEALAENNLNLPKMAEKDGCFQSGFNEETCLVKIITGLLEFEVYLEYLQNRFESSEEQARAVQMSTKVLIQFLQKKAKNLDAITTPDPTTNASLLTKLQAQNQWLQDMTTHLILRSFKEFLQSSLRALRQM

B1: I6RLSA1-6_011: clone with antigen-binding activity to human IL-6 in the absence of ATP and adenosine (antibody, V domains shown)
VH: EVQLVESGGDLVKPGGGLRLSCAASGFTFSGYTMHWVRQAPGKGLEWVSSISSRSSHISYADSVKGRFTISRDNAKNSLYLQMNSLRAEDTAVYYCARFGRKYRMNWVFDYWGQGTLVTVSS
VL: QSALTQPPSASGSPGQTVTISCTGTSTDVGFYNYVSWYQQHPGKAPKLMIYDTSKRPSGVPDRFSGSKSGNTASLTVSGLQAEDEADYFCSTVTGIWSVGFGGGTKLTVL
[1]
  antigen-binding activity to human IL-6 in the absence of ATP and adenosine: had an antigen-binding activity

B2: HSADSA1-6_020: clone with antigen-binding activity to HSA in the absence of ATP and adenosine (antibody, V domains shown)
VH: B1 VH with G31S, Y32H, H35N, S56N, I58A, S59T, R101K, Y103G, M105Y, N106L
VL: QSALTQPPSASGSPGQTVTISCTGTSSDVGDYNYVSWYQQHPGKAPKLMIYYVSKRPSGVPDRFSGSKSGNTASLTVSGLQAEDEADYFCSLTTDSLNPVFGGGTKLTVL
[2]
  antigen-binding activity to human serum albumin (HSA) in the absence of ATP and adenosine: had antigen-binding activity

B3: IADL3C5-4_048: clone binding human IgA-Fc in the presence of adenosine and ATP; SEQ ID NOs: 100 and 101 (antibody, listed as Homo sapiens, V domains shown)
VH: B1 VH with Y32H, H35N, S56N, S59Y, F99Y, Y103F, R104M
VL: B1 VL with D52Q, T53N, T92L, V93R, T94S, G95S, I96N, W97L, V99P
[3]
  antigen-binding activity in the presence of adenosine and ATP: exhibits antigen-binding activity

Source: patent US11673947B2, “Target tissue-specific antigen-binding molecule” (Chugai Seiyaku Kabushiki Kaisha, priority 2012, dated 2023)
